Data on eleven molecules can be found in US20240132578A1 (published 2024).

For assay [1], the target named is T1, Recombinant gp41 generated with sequences derived from HxB2 clone of HIV-1, expressed in Pichia pastoris (HIV-1 clone HxB2, UniProt P04578 541-682).
T1 construct: domain: gp41; also called gp41HxB2
Kind of assay: ELISA, B cell culture supernatant on directly immobilised recombinant gp41.

The target in assay [2] is HIV-1 92UG024 Env (clade D pseudovirus) (HIV-1). The experiment in a line: cell-based or functional assay.
For assay [3], the target named is HIV-1 APV-6 Env (clade B pseudovirus) (HIV-1). The experiment in a line: cell-based or functional assay.
Assay [4] addresses HIV-1 JRCSF Env (clade B pseudovirus) (HIV-1, UniProt P20871 32-848). Kind of assay: cell-based or functional assay.
Assay [5] deals with HIV-1 92TH021 Env (CRF01_AE pseudovirus) (HIV-1). Kind of assay: cell-based or functional assay.
Assay [6] deals with HIV-1 IAVI-C22 Env (clade C pseudovirus) (HIV-1). Kind of assay: cell-based or functional assay.
In assay [7] the target is HIV-1 92RW020 Env (clade A pseudovirus) (HIV-1). The experiment in a line: cell-based or functional assay.
In assay [8] the target is HIV-1 93UG077 Env (clade A pseudovirus) (HIV-1). The experiment in a line: cell-based or functional assay.
The target in assay [9] is HIV-1 IAVI-C3 Env (clade C pseudovirus) (HIV-1). The experiment in a line: cell-based or functional assay.
Assay [10] has as its target HIV-1 CMU02 Env (CRF01_AE pseudovirus) (HIV-1). The experiment in a line: cell-based or functional assay.
Assay [11] addresses aMLV envelope (negative control pseudovirus). Kind of assay: cell-based or functional assay.
The target in assay [12] is HIV-1 93IN905 Env (clade C pseudovirus) (HIV-1). Kind of assay: cell-based or functional assay.
Assay [13] concerns the target HIV-1 94UG103 Env (clade A pseudovirus) (HIV-1). The experiment in a line: cell-based or functional assay.
Assay [14] has as its target HIV-1 92UG005 Env (clade D pseudovirus) (HIV-1). The experiment in a line: cell-based or functional assay.
The target of assay [15] is HIV-1 APV-17 Env (clade B pseudovirus) (HIV-1). The experiment in a line: cell-based or functional assay.
Assay [16] addresses HIV-1 92BR020 Env (clade B pseudovirus) (HIV-1). Kind of assay: cell-based or functional assay.
Assay [17] deals with HIV-1 APV-13 Env (clade B pseudovirus) (HIV-1). Kind of assay: cell-based or functional assay.
Assay [18] addresses HIV-1 IAVI-C18 Env (clade C pseudovirus) (HIV-1). The experiment in a line: cell-based or functional assay.
The next assay addresses T2, recombinant gp41HxB2 (HIV-1 clone HxB2, UniProt P04578 541-682).
T2 construct: domain: gp41
Kind of assay: ELISA on recombinant gp41. In general terms: ELISA stands for enzyme-linked immunosorbent assay.

B1: B cell culture supernatant of well 1460 G14 (source of antibody 1460_G14 (PGG14)) (antibody, V domains shown)
VH: QVLLVQSGTEVKKPGSSVKVSCQASGGAFSSYAFSWVRQAPGQGLEWMGMITPVFGETKYAPRFQGRLTLTAEESLSTTYMELRSLTSDDTAFYYCTRDRRVVPMATDNWLDPWGQGTLVTVSS
VL: DIQLTQSPSSLSASVGDRVTVTCRASQTIHTYLNWYQQIPGKAPKLLIYGASTLQSGVPSRFSGSGSGTDFTLTINSLQPEDFATYYCQQSYSTPRTFGQGTRLDIK
With B1, the binding result in [1] is “no binding”.

B2: B cell culture supernatant of well 1496 C9 (source of antibody 1496_C09 (PG9) (TCN-109)) (antibody, V domains shown)
VH: QRLVESGGGVVQPGSSLRLSCAASGFDFSRQGMHWVRQAPGQGLEWVAFIKYDGSEKYHADSVWGRLSISRDNSKDTLYLQMNSLRVEDTATYFCVREAGGPDYRNGYNYYDFYDGYYNYHYMDVWGKGTTVTVSS
VL: QSALTQPASVSGSPGQSITISCNGTSNDVGGYESVSWYQQHPGKAPKVVIYDVSKRPSGVSNRFSGSKSGNTASLTISGLQAEDEGDYYCKSLTSTRRRVFGTGTKLTVL
Turning to B2, the binding result in assay [1] is “no binding”.

B3: 1456_P20 (PG20) (antibody, human IgG1, kappa, V domains shown)
VH: QVRLVQSGPEVKKPGSSVTVSCQASGGTFSSYAFTWVRQAPGQGLEWLGMVTPIFGEAKYSQRFEGRVTITADESTSTTSIELRGLTSEDTAIYYCARDRRAVPIATDNWLDPWGQGTLVTVSS
VL: DIQLTQSPSSLSASVGDRVSITCRASQTINNYLNWYQQTPGKAPKLLIYGASNLQNGVPSRFSGSGSGTDFTLTISSLQPEDFATYYCQQSFSTPRTFGQGTRLDIKR
On to B3, for which the “IC50 (µg/mL), pseudovirus neutralization” value is > 50 µg/mL in assay [2]; 25.8 µg/mL in assay [3]; > 50 µg/mL in assay [4]; > 50 µg/mL in assay [5]; > 50 µg/mL in assay [6]; 50 µg/mL in assay [7]. Further, the “IC50 (µg/mL), pseudovirus neutralization” value in assay [8], in assay [9], in [10], in assay [11], in assay [12] and in assay [13] was > 50 µg/mL throughout. Also, the “IC50 (µg/mL), pseudovirus neutralization” value in assay [14], in assay [15], in assay [16], in assay [17] and in assay [18] was > 50 µg/mL each time.

B4: 1456_P20 (PG20) (antibody, human IgG1, kappa, V domains shown)
VH: QVRLVQSGPEVKKPGSSVTVSCQASGGTFSSYAFTWVRQAPGQGLEWLGMVTPIFGEAKYSQRFEGRVTITADESTSTTSIELRGLTSEDTAIYYCARDRRAVPIATDNWLDPWGQGTLVTVSS
VL: DIQLTQSPSSLSASVGDRVSITCRASQTINNYLNWYQQTPGKAPKLLIYGASNLQNGVPSRFSGSGSGTDFTLTISSLQPEDFATYYCQQSFSTPRTFGQGTRLDIKR
For the molecule B4, the binding result with recombinant gp41HxB2 is recorded as “no binding”.

B5: B cell culture supernatant of well 1456 P20 (source of antibody 1456_P20 (PG20)) (antibody, V domains shown)
VH: QVRLVQSGPEVKKPGSSVTVSCQASGGTFSSYAFTWVRQAPGQGLEWLGMVTPIFGEAKYSQRFEGRVTITADESTSTTSIELRGLTSEDTAIYYCARDRRAVPIATDNWLDPWGQGTLVTVSS
VL: DIQLTQSPSSLSASVGDRVSITCRASQTINNYLNWYQQTPGKAPKLLIYGASNLQNGVPSRFSGSGSGTDFTLTISSLQPEDFATYYCQQSFSTPRTFGQGTRLDIK
In the case of B5, the binding result in assay [1] is given as “no binding”.

B6: 1460_G14 (PGG14) (antibody, human IgG1, kappa, V domains shown)
VH: QVLLVQSGTEVKKPGSSVKVSCQASGGAFSSYAFSWVRQAPGQGLEWMGMITPVFGETKYAPRFQGRLTLTAEESLSTTYMELRSLTSDDTAFYYCTRDRRVVPMATDNWLDPWGQGTLVTVSS
VL: DIQLTQSPSSLSASVGDRVTVTCRASQTIHTYLNWYQQIPGKAPKLLIYGASTLQSGVPSRFSGSGSGTDFTLTINSLQPEDFATYYCQQSYSTPRTFGQGTRLDIKR
Turning to B6, the binding result with recombinant gp41HxB2 is listed as “no binding”.

B7: 1460_G14 (PGG14) (antibody, human IgG1, kappa, V domains shown)
VH: QVLLVQSGTEVKKPGSSVKVSCQASGGAFSSYAFSWVRQAPGQGLEWMGMITPVFGETKYAPRFQGRLTLTAEESLSTTYMELRSLTSDDTAFYYCTRDRRVVPMATDNWLDPWGQGTLVTVSS
VL: DIQLTQSPSSLSASVGDRVTVTCRASQTIHTYLNWYQQIPGKAPKLLIYGASTLQSGVPSRFSGSGSGTDFTLTINSLQPEDFATYYCQQSYSTPRTFGQGTRLDIKR
On to B7, for which the “IC50 (µg/mL), pseudovirus neutralization” value in [2], in assay [3], in [4], in assay [5], in [6] and in assay [7] was > 50 µg/mL in each case. Besides, the “IC50 (µg/mL), pseudovirus neutralization” value in assay [8], in [9], in assay [10], in [11], in [12] and in [13] was > 50 µg/mL each time. In addition, the “IC50 (µg/mL), pseudovirus neutralization” value in assay [14], in assay [15], in assay [16], in assay [17] and in assay [18] was > 50 µg/mL throughout.

B8: 1495_C14 (PGC14) (antibody, human IgG1, lambda, V domains shown)
VH: DGHLVQSGVEVKKTGATVKISCKVSGYSFIDYYLHWVQRAPGKGLEWVGLIDPENGEARYAEKFQGRVTIIADTSIDTGYMEMRSLKSEDTAVYFCAAGAVGADSGSWFDPWGQGTLVTVSS
VL: SYELTQPPSVSVSPGQTASITCSGSKLGDKYVSWYQLRPGQSPILVMYENDRRPSGIPERFSGSNSGDTATLTISGTQALDEADFYCQAWETTTTTFVFFGGGTQLTVLG
B8: the “IC50 (µg/mL), pseudovirus neutralization” value in assay [2] was > 50 µg/mL; in assay [3] it was 7.41 µg/mL; in assay [4] it was > 50 µg/mL; in [5], > 50 µg/mL; in assay [6], > 50 µg/mL; in assay [7], 28.6 µg/mL. In addition, the “IC50 (µg/mL), pseudovirus neutralization” value in assay [8] was > 50 µg/mL; in assay [9], 9.5 µg/mL; in assay [10], > 50 µg/mL; in assay [11], > 50 µg/mL; in assay [12], > 50 µg/mL; in [13], > 50 µg/mL. For the same molecule, the “IC50 (µg/mL), pseudovirus neutralization” value in assay [14] was > 50 µg/mL; in assay [15] it was > 50 µg/mL; in assay [16], 0.64 µg/mL; in [17], > 50 µg/mL; in [18], > 50 µg/mL.

B9: B cell culture supernatant of well 1495 C14 (source of antibody 1495_C14 (PGC14)) (antibody, V domains shown)
VH: DGHLVQSGVEVKKTGATVKISCKVSGYSFIDYYLHWVQRAPGKGLEWVGLIDPENGEARYAEKFQGRVTIIADTSIDTGYMEMRSLKSEDTAVYFCAAGAVGADSGSWFDPWGQGTLVTVSS
VL: SYELTQPPSVSVSPGQTASITCSGSKLGDKYVSWYQLRPGQSPILVMYENDRRPSGIPERFSGSNSGDTATLTISGTQALDEADFYCQAWETTTTTFVFFGGGTQLTVL
On to B9, for which, in [1], the binding result is “no binding”.

B10: 1495_C14 (PGC14) (antibody, human IgG1, lambda, V domains shown)
VH: DGHLVQSGVEVKKTGATVKISCKVSGYSFIDYYLHWVQRAPGKGLEWVGLIDPENGEARYAEKFQGRVTIIADTSIDTGYMEMRSLKSEDTAVYFCAAGAVGADSGSWFDPWGQGTLVTVSS
VL: SYELTQPPSVSVSPGQTASITCSGSKLGDKYVSWYQLRPGQSPILVMYENDRRPSGIPERFSGSNSGDTATLTISGTQALDEADFYCQAWETTTTTFVFFGGGTQLTVLG
On to B10, for which, in the assay with recombinant gp41HxB2, the binding result was “no binding”.

B11: B cell culture supernatant of well 1443 C16 (source of antibody 1443_C16 (PG16) (TCN-116)) (antibody, V domains shown)
VH: QEQLVESGGGVVQPGGSLRLSCLASGFTFHKYGMHWVRQAPGKGLEWVALISDDGMRKYHSDSMWGRVTISRDNSKNTLYLQFSSLKVEDTAMFFCAREAGGPIWHDDVKYYDFNDGYYNYHYMDVWGKGTTVTVSS
VL: QSALTQPASVSGSPGQTITISCNGTSSDVGGFDSVSWYQQSPGKAPKVMVFDVSHRPSGISNRFSGSKSGNTASLTISGLHIEDEGDYFCSSLTDRSHRIFGGGTKVTVL
For the molecule B11, the binding result in assay [1] was “no binding”.
